Source: paper PMC8060872

Key:
Assay in all cases: AUC
[1] = biological target: N-terminally truncated SARS-CoV main protease Δ(1–7) (SARS-CoV)
[2] = biological target: C-terminally truncated SARS-CoV main protease Δ(201–306) (SARS-CoV)
[3] = biological target: N-terminally truncated SARS-CoV main protease Δ(1–5) (SARS-CoV)
[4] = biological target: C-terminally truncated SARS-CoV main protease Δ(293–306) (SARS-CoV)
[5] = biological target: N-terminally truncated SARS-CoV main protease Δ(1–6) (SARS-CoV)
[6] = biological target: N-terminally truncated SARS-CoV main protease Δ(1–4) (SARS-CoV)

N-terminally truncated SARS-CoV main protease Δ(1–7) (domain or fragment)
Kd [1]: 357 µM

C-terminally truncated SARS-CoV main protease Δ(201–306) (domain or fragment)
Kd [2]: 7870 µM

N-terminally truncated SARS-CoV main protease Δ(1–5) (domain or fragment)
Kd [3]: 35.4 µM

C-terminally truncated SARS-CoV main protease Δ(293–306) (domain or fragment)
Kd [4]: 163 µM

N-terminally truncated SARS-CoV main protease Δ(1–6) (domain or fragment)
Kd [5]: 151 µM

N-terminally truncated SARS-CoV main protease Δ(1–4) (domain or fragment)
Kd [6]: 57.5 µM
